This test addresses potassium channel Kv4.3 T1 domain (tetramerization domain, residues 29-143, with N-terminal Met, C-terminal Leu-Glu and six His-tag). The test can be described thus: X-ray crystal structure of the T1 tetramer.

In turn, “potassium channel Kv4.3 T1 domain (tetramerization domain, residues 29-143, with N-terminal Met, C-terminal Leu-Glu and six His-tag)” displayed a solvent-accessible surface area buried by each subunit at its two subunit interfaces of 960 Å^2.
